According to patent US20020048812A1, “Isolation and in vitro differentiation of conditionally immortalized murine olfactory receptor neurons” (priority 2000, published 2002):
Entries after “also recorded” stand apart in the source; their conditions may differ.

Experiments:
[1] = tested on: NST+ cells in the heterogeneous culture; assay: Counting NST+ cells (anti-NST labeling) in heterogeneous olfactory cell cultures with growth factors; format: cell-based, mouse; conditions: for Normalized # of NST+ Cells: 100 ng.ml^−1
Method: FIG. 2A. Interferon causes a significant, dose-dependent increase in the number of NST+ cells in the heterogeneous culture, with an EC50 of 0.4 U.ml^−1. Cells were incubated at 33° C. and were stained with anti-NST and rhodamine-coupled secondary antibodies seven days after plating. Cell counts were obtained from ten randomly selected areas in each experiment. Data were normalized to the mean number of NST+ cells in the absence of interferon and each point represents the mean ±S.E.M from three experiments.
FIG. 2B. EGF (•) and NGF (□) both have mitogenic effects in permissive conditions over and above the effect of interferon. NST+ cells were counted as described in (A) and were normalized to baseline levels in the presence of interferon (40 U.ml^−1). […] Except for the presence of interferon (40 U.ml^−1), all experimental conditions were as in A.
To determine the optimal conditions for cell survival, growth, differentiation and maturation, cells were cultured in permissive and non-permissive conditions in the presence of interferon, EGF, NGF, BDNF and NT-3. […] The effects of EGF, NGF, BDNF and NT-3 on cell maturation in non-permissive culture conditions were
To keep the amount of expressed TAg to the minimum required for immortalization (Noble et al., 1995), heterozygous offspring from homozygous male H-2K^b-tsA58 transgenic and C57B1 female mice (Charles River Laboratories, Wilmington Mass., and Jackson Laboratory, Bar Harbor, Me., respectively) were used to generate the conditionally immortal neuronal cell culture. Cells were isolated in a procedure modified from a previously established technique (Ronnett et al., 1991). Briefly, post-natal day 1-3 animals were decapitated and the heads were sectioned longitudinally. The olfactory epithelium and nasal septum were removed and placed in an Eppendorf tube containing 500 μl culture medium. The culture medium consisted of Minimum Essential Medium in which the L-valine has been replaced by D-valine (MDV). This was supplemented with 10% fetal bovine serum (FBS), 4 mM glutamine, kanamycin (100 μg.ml^−1), gentamicin (50 U.ml^−1) and amphotericin B (2.5 μg.ml^−1; all from Gibco BRL, Gaithersburg, Md.). The MDV medium was chosen because fibroblasts lack D-amino acid oxidase and the reduction of L-valine inhibits fibroblast survival and growth (Gilbert et al., 1986). Tissue was centrifuged at low speed for two minutes and then most of the medium was removed. The cell pellet was chopped briefly with a pair of fine-point scissors before being resuspended in supplemented cell culture medium. The resultant cell clumps and cell suspension were plated out onto 2- or 4-chamber glass slides (Nunc, Naperville, Ill.) or plastic dishes (Fisher Scientific, Pittsburgh, Pa.). To enhance ORN adhesion, all cell culture materials were pretreated with laminin (0.125 mg.ml^−1 in serum-free media, Collaborative Biomedical Products, Bedford, Mass.) for at least 12 hours, prior to plating. Cells were maintained in culture at 33° C. (the permissive temperature for the SV40 TAg) and, to stimulate transcription of the transgene, the culture medium was supplemented with murine γ-interferon (40 U.ml^−1, Genzyme, Cambridge, Mass.). Provisionally, in permissive conditions, the cell culture medium was supplemented with epidermal growth factor (EGF, 20 ng.ml^−1, Gibco BRL) and 2.5 S nerve growth factor (NGF, 10 ng.ml^−1, Gibco BRL) before thorough characterizations of their effects were made in later experiments.
To determine optimum conditions for cell survival, growth, differentiation or maturation, numerous combinations of culture conditions were tested. These included i) removal of the olfactory epithelium from newborn, 4-week-old, and sexually mature animals, ii) subjecting tissue to digestion by trypsin (Gibco BRL, 0.5 g.l^−1 for 60 minutes at 37° C.), iii) addition of growth factors to the culture medium and iv) the use of diverse culture media. […]

[2] = tested on: olfactory marker protein (OMP); assay: OMP expression by Western blot in cells in non-permissive conditions; format: cell-based, mouse; conditions: 37° C., heterogeneous cell cultures, 15 μg protein per lane
Method: FIG. 2C. Effects of EGF, NGF, BDNF and NT-3 on OMP expression as determined by Western blot. Cells were maintained in non-permissive conditions at 37° C. in the absence of growth factors (C) or in presence of EGF (E), NGF (N), BDNF (B) or NT-3 (3). Samples were isolated from the heterogeneous cell cultures and from olfactory tissue (T), and were separated on a SDS-polyacrylamide gel (15 μg protein per lane). OMP is a 19 kD protein and, in situ, is expressed only in mature olfactory receptor neurons. OMP was not detected in control cells (C), cultured in the absence of growth factors or in cells incubated in the presence of EGF.
assayed by Western blot detection of olfactory marker protein (OMP), a marker of mature olfactory receptor neurons (Margolis, 1988).
Cells were always maintained in permissive culture conditions except when attempts were made to obtain a differentiated phenotype through transgene inactivation. In this case, cells were incubated in non-permissive culture conditions, i.e. at 37° C. in γ-interferon-free media for seven days, before the effects of transgene inactivation were determined. The effects of EGF, NGF, BDNF and NT-3 in promoting cell maturation/differentiation were assessed and, based on those experiments, BDNF and NT-3 were routinely added to the culture medium for cells in non-permissive culture conditions. In both culture environments, the air was kept humidified and contained 5% CO2.
Cells were scraped into a cold isolation buffer containing 20 mM Na(N-tris[hydroxymethyl]methyl-2-aminoethanesulfonic acid) (Na TES), 10 mM mannitol and 1% Triton X-100 at pH 7.4. The isolation buffer was supplemented with phenylmethylsulfonyl fluoride (30 μg.ml^−1), leupeptin (2 μg.ml^−1), benzamidine (16 μg.ml^'1), pepstatin (2 μg.ml^−1), and lima bean trypsin inhibitor (50 μg.ml^−1) to prevent protease activity. After five freeze/thaw cycles, cell extracts were centrifuged at 2,000 g for 5 minutes to pellet nuclei and cell debris. […]

B1: NT-3: neurotrophin-3 (Peprotech) (protein, UniProt P20783 139-257, looked up)
Neurotrophin-3: YAEHKSHRGEYSVCDSESLWVTDKSSAIDIRGHQVTVLGEIKTGNSPVKQYFYETRCKEARPVKNGCRGIDDKHWNSQCKTSQTYVRALTSENNKLVGWRWIRIDTSCVCALSRKIGRT
modifications: Neurotrophin-3
[1]; 33° C., in the presence of 40 U.ml^−1 interferon, normalized to that point
  Normalized # of NST+ Cells: 0.8 ± 0.1
[1]; 37° C.
  Normalized # of NST+ Cells: 1.4 ± 0.1
[1]; permissive conditions (33° C.)
  Effect on the number of NST+ cells (in words): no effect
[2]
  OMP expression detected by Western blot (in words): significant expression of OMP could be observed; also recorded: greater from cells incubated with NT-3 than with BDNF; also recorded: most readily detected
